Target: T1, wild-type (polymerization-competent) yeast αβ-tubulin (yeast, UniProt P09733 1-447; P02557 1-457)
T1 construct: α-tubulin of yeast; β-tubulin of yeast, wild type; source: overexpressed in Saccharomyces cerevisiae, purified; copies: 1 + 1
Test: AUC; sedimentation velocity; seven concentrations of TOG1 or TOG2 (44 nM-4.5 μM) titrated into 0.35 μM αβ-tubulin; 1:1 binding isotherm fitted; RB100 with 20 μM GTP, 20°C
Conditions: both partners purified

Kd: 160 nM
stoichiometry N: 1
B1: TOG2 domain from Stu2p, TOG2(318-560) (domain or fragment)
chain: MLPEETILDKLPKDFQERITSSKWKDRVEALEEFWDSVLSQTKKLKSTSQNYSNLLGIYGHIIQKDANIQAVALAAQSVELICDKLKTPGFSKDYVSLVFTPLLDRTKEKKPSVIEAIRKALLTICKYYDPLASSGRNEDMLKDILEHMKHKTPQIRMECTQLFNASMKEEKDGYSTLQRYLKDEVVPIVIQIVNDTQPAIRTIGFESFAILIKIFGMNTFVKTLEHLDNLKRKKIEETVKTL
